Each block holds one substance with its values, some of them ahead of it.
What was measured:
[1] = target: PpRAD51-2, purified recombinant (P. patens)
[2] = target: biotinylated PpBRCA2-BRC1 peptide (P. patens); test: BLI; biotinylated BRC peptides (0.5 μM) immobilised on streptavidin biosensors, PpRAD51-2 in solution in two-fold serial dilutions; 25°C; buffer A (25 mM Tris pH 7.5, 100 mM Na2SO4, 5 mM β-mercaptoethanol) with 0.05% Tween-20; Kd in steady-state mode
[3] = target: biotinylated PpBRCA2-BRC2 peptide (P. patens); test: as above
[4] = target: biotinylated PpBRCA2-BRC4 peptide (P. patens); test: as above
[5] = target: 6His-PpBRCA2-Cter (amino acids 251–391) (P. patens); test: BLI; 6His-PpBRCA2-Cter immobilised on Ni-NTA biosensors, PpRAD51-2 in solution (1.88–30 nM); buffer A with 0.1% Tween-20; 25°C
[6] = system: PpBRCA2-NterT138 (Physcomitrium patens); test: BLI; conditions: text cites Fig. 7B; Kd in Fig. 7C not in text; EMSA: 10 mM Tris-HCl pH 7.5, 50 mM NaCl, 5 mM MgCl2, 2 mM ATP, 1 mM DTT, 37 C, 7 min (RAD51/DMC1 15 min), 0.01% glutaraldehyde; BLI: 25 mM Tris pH 7.5, 100 mM …

- concentration needed for complete inhibition of PpRAD51-ssDNA filament formation (EMSA; 1 μM RAD51-2, 3 μM 100 nt ssDNA, 0–4 μM PpBRCA2-Cter) [1]: 2 µM
Substance: 6His-PpBRCA2-Cter (amino acids 251–391) (domain or fragment)

- concentration needed for complete inhibition of PpRAD51-ssDNA filament formation (EMSA; 1 μM RAD51-2, 3 μM 100 nt ssDNA, 0–4 μM PpBRCA2-BRC4) [1]: > 4 µM
Substance: biotinylated PpBRCA2-BRC4 peptide

- Kd [2]: 400 nM
- Kd [3]: 800 nM
- Kd [4]: 400 nM
- Kd [5]: 4.3 nM
Substance: PpRAD51-2, purified recombinant (natural protein)

Substance: 100 nt ssDNA (BLI)
- fold decrease in affinity relative to PpBRCA2-Nter (fold weaker affinity than PpBRCA2-Nter) [6]: 50

Source: publication PMC12412785
